Measurements as given in patent EP4722253A1 (dated 2026).
Changes are numbered by the printed parent chain.

T1: FcγRIIa (UniProt P12318 34-217)
T1 sequence (looked up): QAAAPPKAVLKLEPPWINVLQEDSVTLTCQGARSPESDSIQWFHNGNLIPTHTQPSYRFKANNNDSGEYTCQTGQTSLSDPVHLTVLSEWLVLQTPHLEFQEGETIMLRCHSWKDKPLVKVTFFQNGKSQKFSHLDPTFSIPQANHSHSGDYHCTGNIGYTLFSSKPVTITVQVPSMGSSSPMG

B1: Q-SBL-101 (bispecific antibody, human IgG1, kappa)
heavy 1: not shown
heavy 2: EVQLVESGGGLVQPGGSLRLSCAASGYTFTNYGMNWVRQAPGKGLEWVGWINTYTGEPTYAADFKRRFTFSLDTSKSTAYLQMNSLRAEDTAVYYCAKYPHYYGSSHWYFDVWGQGTLVTVSSASTKGPSVFPLAPSSKSTSGGTAALGCLVKDYFPEPVTVSWNSGALTSGVHTFPAVLQSSGLYSLSSVVTVPSSSLGTQTYICNVNHKPSNTKVDKKVEPKSCDKTHTCPPCPAPELLGGPSVFLFPPKPKDTLMISRTPEVTCVVVDVSHEDPEVKFNWYVDGVEVHNAKTKPREEQYNSTYRVVSVLTVLHQDWLNGKEYKCKVSNKALPAPIEKTISKAKGQPREPQVCTLPPSRREMTKNQVSLWCLVKGFYPSDIAVEWESNGQPENNYKTTPPVLDSDGSFFLYSKLTVDKSRWQQGNVFSCSVMHEALHNHYTQKSLSLSPGK
light 1: not shown
light 2: not shown
notes: copies: 1 + 1 + 1 + 1
B2: Q-SBL-103 (bispecific antibody, human IgG1, kappa)
heavy 1: not shown
heavy 2: B1 heavy 2 with R362E, E363R
light 1: not shown
light 2: not shown
notes: copies: 1 + 1 + 1 + 1
B3: Q-SBL-115 (bispecific antibody, human IgG1, kappa)
heavy 1: not shown
heavy 2: B1 heavy 2 with R362E, E363R
light 1: not shown
light 2: not shown
notes: copies: 1 + 1 + 1 + 1
B4: Q-SBL-127 (bispecific antibody, human IgG1, kappa)
heavy 1: not shown
heavy 2: B1 heavy 2 with R362E, D405F
light 1: not shown
light 2: not shown
notes: copies: 1 + 1 + 1 + 1
B5: Q-SBL-137 (bispecific antibody, human IgG1, kappa)
heavy 1: not shown
heavy 2: B1 heavy 2 with R362E, K415S
light 1: not shown
light 2: not shown
notes: copies: 1 + 1 + 1 + 1
B6: Q-SBL-117 (bispecific antibody, human IgG1, kappa)
heavy 1: not shown
heavy 2: B1 heavy 2 with R362K
light 1: not shown
light 2: not shown
notes: copies: 1 + 1 + 1 + 1
B7: Q-SBL-111 (bispecific antibody, human IgG1, kappa)
heavy 1: not shown
heavy 2: B1 heavy 2
light 1: not shown
light 2: not shown
notes: copies: 1 + 1 + 1 + 1
B8: Q-SBL-130 (bispecific antibody, human IgG1, kappa)
heavy 1: not shown
heavy 2: B1 heavy 2 with R362E, D405F
light 1: not shown
light 2: not shown
notes: copies: 1 + 1 + 1 + 1
B9: Q-SBL-102 (bispecific antibody, human IgG1, kappa)
heavy 1: not shown
heavy 2: B1 heavy 2 with R362E, D405H
light 1: not shown
light 2: not shown
notes: copies: 1 + 1 + 1 + 1
B10: Q-SBL-116 (bispecific antibody, human IgG1, kappa)
heavy 1: not shown
heavy 2: B1 heavy 2 with R362K
light 1: not shown
light 2: not shown
notes: copies: 1 + 1 + 1 + 1
B11: Q-SBL-131 (bispecific antibody, human IgG1, kappa)
heavy 1: not shown
heavy 2: B1 heavy 2 with R362E, D405F
light 1: not shown
light 2: not shown
notes: copies: 1 + 1 + 1 + 1
B12: Q-SBL-114 (bispecific antibody, human IgG1, kappa)
heavy 1: not shown
heavy 2: B1 heavy 2 with R362E, D405H
light 1: not shown
light 2: not shown
notes: copies: 1 + 1 + 1 + 1
B13: Q-SBL-109 (bispecific antibody, human IgG1, kappa)
heavy 1: not shown
heavy 2: B1 heavy 2
light 1: not shown
light 2: not shown
notes: copies: 1 + 1 + 1 + 1
B14: Q-SBL-105 (bispecific antibody, human IgG1, kappa)
heavy 1: not shown
heavy 2: B1 heavy 2 with E363R
light 1: not shown
light 2: not shown
notes: copies: 1 + 1 + 1 + 1
B15: Q-SBL-104 (bispecific antibody, human IgG1, kappa)
heavy 1: not shown
heavy 2: B1 heavy 2 with D405H
light 1: not shown
light 2: not shown
notes: copies: 1 + 1 + 1 + 1
B16: Q-SBL-135 (bispecific antibody, human IgG1, kappa)
heavy 1: not shown
heavy 2: B1 heavy 2 with R362E, K415V
light 1: not shown
light 2: not shown
notes: copies: 1 + 1 + 1 + 1
B17: Q-SBL-136 (bispecific antibody, human IgG1, kappa)
heavy 1: not shown
heavy 2: B1 heavy 2 with R362E, K415T
light 1: not shown
light 2: not shown
notes: copies: 1 + 1 + 1 + 1
B18: Q-SBL-106 (bispecific antibody, human IgG1, kappa)
heavy 1: not shown
heavy 2: B1 heavy 2 with R362E, E363R, D405H
light 1: not shown
light 2: not shown
notes: copies: 1 + 1 + 1 + 1

Each binder was assayed against T2, C1q, complement component 1q (UniProt P02745 23-245; P02746 28-253; P02747 29-245) (assay: BLI (Octet HTX), antibody on FAB2G biosensor, C1q in solution).
T2 construct: also called Clq
T2 sequence (P02745 23-245 limits assumed, chain 1 of 3): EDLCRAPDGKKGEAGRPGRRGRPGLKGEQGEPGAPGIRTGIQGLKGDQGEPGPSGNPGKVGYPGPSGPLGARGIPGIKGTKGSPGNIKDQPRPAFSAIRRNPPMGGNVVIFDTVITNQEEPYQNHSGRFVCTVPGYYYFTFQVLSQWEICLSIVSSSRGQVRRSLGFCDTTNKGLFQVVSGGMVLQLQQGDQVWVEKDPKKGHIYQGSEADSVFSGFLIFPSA
T2 sequence (P02746 28-253 limits assumed, chain 2 of 3): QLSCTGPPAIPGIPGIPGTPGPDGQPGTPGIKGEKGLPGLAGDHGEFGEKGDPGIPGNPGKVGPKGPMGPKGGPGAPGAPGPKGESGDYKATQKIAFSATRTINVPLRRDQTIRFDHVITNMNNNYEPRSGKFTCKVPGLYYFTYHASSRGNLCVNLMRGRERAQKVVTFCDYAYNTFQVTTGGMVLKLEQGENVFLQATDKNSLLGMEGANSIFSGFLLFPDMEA
T2 sequence (P02747 29-245 limits assumed, chain 3 of 3): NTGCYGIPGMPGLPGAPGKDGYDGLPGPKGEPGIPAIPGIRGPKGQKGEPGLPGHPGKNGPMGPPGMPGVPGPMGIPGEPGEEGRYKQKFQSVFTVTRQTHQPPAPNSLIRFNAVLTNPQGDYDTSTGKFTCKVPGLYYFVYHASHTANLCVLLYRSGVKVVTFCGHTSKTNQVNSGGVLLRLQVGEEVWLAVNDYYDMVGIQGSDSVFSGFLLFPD

Binder	Kd [nM]
B1	36
B2	40
B3	18
B4	18
B5	24
B6	40
B7	30
B8	17
B9	40
B10	33
B11	16
B12	18
B13	28

The binders below were run against T1, FcγRIIa (assay: BLI (Octet HTX), antibody on FAB2G biosensor, FcγRIIa in solution).

Binder	Kd [nM]
B1	2460
B2	1130
B14	1910
B15	1870
B16	1380
B3	1970
B4	1630
B5	2120
B6	2550
B7	2040
B8	1720
B9	1700
B10	2340
B11	1620
B17	1970
B12	1860
B13	2200

What follows are binders tested against T3, FcγRIIIa (UniProt P08637 17-208) (assay: BLI (Octet HTX), antibody on FAB2G biosensor, FcγRIIIa in solution).
T3 construct: also called FcyRIIIa
T3 sequence (P08637 17-208 limits assumed): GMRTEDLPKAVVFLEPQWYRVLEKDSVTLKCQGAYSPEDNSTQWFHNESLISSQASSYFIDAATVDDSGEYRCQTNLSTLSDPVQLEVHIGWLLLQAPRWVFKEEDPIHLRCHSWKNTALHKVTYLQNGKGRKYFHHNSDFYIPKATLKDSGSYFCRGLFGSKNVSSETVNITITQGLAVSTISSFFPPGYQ

Binder	Kd [nM]
B1	500
B2	220
B14	430
B16	300
B3	290
B4	230
B5	380
B6	360
B7	490
B8	290
B9	420
B10	370
B11	330
B17	230
B12	230
B13	340

These binders were tested against T4, FcRn (UniProt P55899 24-297) (assay: BLI (Octet HTX), antibody on FAB2G biosensor, FcRn in solution, pH 6.0).
T4 construct: also called neonatal Fc receptor
T4 sequence (P55899 24-297 limits assumed, form in doubt): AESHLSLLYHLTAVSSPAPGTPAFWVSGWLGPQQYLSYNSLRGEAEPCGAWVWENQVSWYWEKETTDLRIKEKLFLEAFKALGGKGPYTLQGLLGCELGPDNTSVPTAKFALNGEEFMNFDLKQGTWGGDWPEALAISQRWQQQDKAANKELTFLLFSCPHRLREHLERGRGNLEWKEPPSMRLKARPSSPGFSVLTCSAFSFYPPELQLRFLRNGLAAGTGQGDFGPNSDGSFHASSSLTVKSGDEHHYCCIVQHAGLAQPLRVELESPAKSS

Binder	Kd [nM]
B1	730
B18	680
B14	710
B15	680
B16	650
B3	690
B4	750
B5	580
B7	690
B8	740
B9	710
B10	650
B11	670
B17	620
B13	640
